Patent US20150374794A1 (Novo Nordisk, published 2015)
Numbered stars: 1 amine (or outer) side, 2 acyl side, 3 side chain; on linkers, the order of the positions; unused ones are H or OH. Square brackets hold non-standard residues; d marks the D form. Side chains are listed from the residue outwards. Ends that are not written are not given here. * marks the point of attachment. C18 diacid = O=C(O)CCCCCCCCCCCCCCCCC(=O)*; γGlu = O=C(O)[C@H](CCC(=O)[*:2])N[*:1]; AEEA = NCCOCCOCC(=O)O; Aib = CC(C)(N)C(=O)O

B1: N^ε28-[(4S)-4-carboxy-4-[[(4S)-4-carboxy-4-[[2-[2-[2-[[2-[2-[2-[[(4S)-4-carboxy-4-(17-carboxyheptadecanoylamino)butanoyl]amino]ethoxy]ethoxy]acetyl]amino]ethoxy … (peptide)
peptide: H[Aib]HGTFTSDLSKYLESKRAREFVQWLLK([γGlu-γGlu-AEEA-AEEA-γGlu-C18 diacid])T-NH2
modifications: N-terminus assumed
SMILES: CC(C)C[C@H](NC(=O)[C@H](Cc1ccc(O)cc1)NC(=O)[C@H](CCCCN)NC(=O)[C@H](CO)NC(=O)[C@H](CC(C)C)NC(=O)[C@H](CC(=O)O)NC(=O)[C@H](CO)NC(=O)[C@@H](NC(=O)[C@H](Cc1ccccc1)NC(=O)[C@@H](NC(=O)CNC(=O)[C@H](Cc1c[nH]cn1)NC(=O)C(C)(C)NC(=O)[C@@H](N)Cc1c[nH]cn1)[C@@H](C)O)[C@@H](C)O)C(=O)N[C@@H](CCC(=O)O)C(=O)N[C@@H](CO)C(=O)N[C@@H](CCCCN)C(=O)N[C@@H](CCCNC(=N)N)C(=O)N[C@@H](C)C(=O)N[C@@H](CCCNC(=N)N)C(=O)N[C@@H](CCC(=O)O)C(=O)N[C@@H](Cc1ccccc1)C(=O)N[C@H](C(=O)N[C@@H](CCC(N)=O)C(=O)N[C@@H](Cc1c[nH]c2ccccc12)C(=O)N[C@@H](CC(C)C)C(=O)N[C@@H](CC(C)C)C(=O)N[C@@H](CCCCNC(=O)CC[C@H](NC(=O)CC[C@H](NC(=O)COCCOCCNC(=O)COCCOCCNC(=O)CC[C@H](NC(=O)CCCCCCCCCCCCCCCCC(=O)O)C(=O)O)C(=O)O)C(=O)O)C(=O)N[C@H](C(N)=O)[C@@H](C)O)C(C)C
B2: N^ε28-[(4S)-4-carboxy-4-[[(4S)-4-carboxy-4-[[(4S)-4-carboxy-4-(17-carboxyheptadecanoylamino)butanoyl]amino]butanoyl]amino]butanoyl]-[Aib2,His3,Leu10,Glu15,Lys17 … (peptide)
peptide: H[Aib]HGTFTSDLSKYLESKRAREFVQWLLK([γGlu-γGlu-γGlu-C18 diacid])T-NH2
modifications: N-terminus assumed
SMILES: CC(C)C[C@H](NC(=O)[C@H](Cc1ccc(O)cc1)NC(=O)[C@H](CCCCN)NC(=O)[C@H](CO)NC(=O)[C@H](CC(C)C)NC(=O)[C@H](CC(=O)O)NC(=O)[C@H](CO)NC(=O)[C@@H](NC(=O)[C@H](Cc1ccccc1)NC(=O)[C@@H](NC(=O)CNC(=O)[C@H](Cc1c[nH]cn1)NC(=O)C(C)(C)NC(=O)[C@@H](N)Cc1c[nH]cn1)[C@@H](C)O)[C@@H](C)O)C(=O)N[C@@H](CCC(=O)O)C(=O)N[C@@H](CO)C(=O)N[C@@H](CCCCN)C(=O)N[C@@H](CCCNC(=N)N)C(=O)N[C@@H](C)C(=O)N[C@@H](CCCNC(=N)N)C(=O)N[C@@H](CCC(=O)O)C(=O)N[C@@H](Cc1ccccc1)C(=O)N[C@H](C(=O)N[C@@H](CCC(N)=O)C(=O)N[C@@H](Cc1c[nH]c2ccccc12)C(=O)N[C@@H](CC(C)C)C(=O)N[C@@H](CC(C)C)C(=O)N[C@@H](CCCCNC(=O)CC[C@H](NC(=O)CC[C@H](NC(=O)CC[C@H](NC(=O)CCCCCCCCCCCCCCCCC(=O)O)C(=O)O)C(=O)O)C(=O)O)C(=O)N[C@H](C(N)=O)[C@@H](C)O)C(C)C
B3: N^ε29-[(4S)-4-carboxy-4-[[(4S)-4-carboxy-4-[[2-[2-[2-[[2-[2-[2-[[(4S)-4-carboxy-4-(17-carboxyheptadecanoylamino)butanoyl]amino]ethoxy]ethoxy]acetyl]amino]ethoxy … (peptide)
peptide: H[Aib]QGTFTSDLSKYLDSRRARDFVQWLLSK([γGlu-γGlu-AEEA-AEEA-γGlu-C18 diacid])-NH2
modifications: N-terminus assumed
SMILES: CC(C)C[C@H](NC(=O)[C@H](CC(C)C)NC(=O)[C@H](Cc1c[nH]c2ccccc12)NC(=O)[C@H](CCC(N)=O)NC(=O)[C@@H](NC(=O)[C@H](Cc1ccccc1)NC(=O)[C@H](CC(=O)O)NC(=O)[C@H](CCCNC(=N)N)NC(=O)[C@H](C)NC(=O)[C@H](CCCNC(=N)N)NC(=O)[C@H](CCCNC(=N)N)NC(=O)[C@H](CO)NC(=O)[C@H](CC(=O)O)NC(=O)[C@H](CC(C)C)NC(=O)[C@H](Cc1ccc(O)cc1)NC(=O)[C@H](CCCCN)NC(=O)[C@H](CO)NC(=O)[C@H](CC(C)C)NC(=O)[C@H](CC(=O)O)NC(=O)[C@H](CO)NC(=O)[C@@H](NC(=O)[C@H](Cc1ccccc1)NC(=O)[C@@H](NC(=O)CNC(=O)[C@H](CCC(N)=O)NC(=O)C(C)(C)NC(=O)[C@@H](N)Cc1c[nH]cn1)[C@@H](C)O)[C@@H](C)O)C(C)C)C(=O)N[C@@H](CO)C(=O)N[C@@H](CCCCNC(=O)CC[C@H](NC(=O)CC[C@H](NC(=O)COCCOCCNC(=O)COCCOCCNC(=O)CC[C@H](NC(=O)CCCCCCCCCCCCCCCCC(=O)O)C(=O)O)C(=O)O)C(=O)O)C(N)=O
B4: N^ε16-[(4S)-4-carboxy-4-[[(4S)-4-carboxy-4-[[2-[2-[2-[[2-[2-[2-[[(4S)-4-carboxy-4-(17-carboxyheptadecanoylamino)butanoyl]amino]ethoxy]ethoxy]acetyl]amino]ethoxy … (peptide)
peptide: H[Aib]QGTFTSDLSKYLDK([γGlu-γGlu-AEEA-AEEA-γGlu-C18 diacid])RRARDFVQWLLST-NH2
modifications: N-terminus assumed
SMILES: CC(C)C[C@H](NC(=O)[C@H](Cc1ccc(O)cc1)NC(=O)[C@H](CCCCN)NC(=O)[C@H](CO)NC(=O)[C@H](CC(C)C)NC(=O)[C@H](CC(=O)O)NC(=O)[C@H](CO)NC(=O)[C@@H](NC(=O)[C@H](Cc1ccccc1)NC(=O)[C@@H](NC(=O)CNC(=O)[C@H](CCC(N)=O)NC(=O)C(C)(C)NC(=O)[C@@H](N)Cc1c[nH]cn1)[C@@H](C)O)[C@@H](C)O)C(=O)N[C@@H](CC(=O)O)C(=O)N[C@@H](CCCCNC(=O)CC[C@H](NC(=O)CC[C@H](NC(=O)COCCOCCNC(=O)COCCOCCNC(=O)CC[C@H](NC(=O)CCCCCCCCCCCCCCCCC(=O)O)C(=O)O)C(=O)O)C(=O)O)C(=O)N[C@@H](CCCNC(=N)N)C(=O)N[C@@H](CCCNC(=N)N)C(=O)N[C@@H](C)C(=O)N[C@@H](CCCNC(=N)N)C(=O)N[C@@H](CC(=O)O)C(=O)N[C@@H](Cc1ccccc1)C(=O)N[C@H](C(=O)N[C@@H](CCC(N)=O)C(=O)N[C@@H](Cc1c[nH]c2ccccc12)C(=O)N[C@@H](CC(C)C)C(=O)N[C@@H](CC(C)C)C(=O)N[C@@H](CO)C(=O)N[C@H](C(N)=O)[C@@H](C)O)C(C)C
B5: N^ε29-[(4S)-4-carboxy-4-[[(4S)-4-carboxy-4-[[2-[2-[2-[[2-[2-[2-[[(4S)-4-carboxy-4-(17-carboxyheptadecanoylamino)butanoyl]amino]ethoxy]ethoxy]acetyl]amino]ethoxy … (peptide)
peptide: H[Aib]QGTFTSDLSKYLDERRAKDFVQWLLSK([γGlu-γGlu-AEEA-AEEA-γGlu-C18 diacid])-NH2
modifications: N-terminus assumed
SMILES: CC(C)C[C@H](NC(=O)[C@H](CC(C)C)NC(=O)[C@H](Cc1c[nH]c2ccccc12)NC(=O)[C@H](CCC(N)=O)NC(=O)[C@@H](NC(=O)[C@H](Cc1ccccc1)NC(=O)[C@H](CC(=O)O)NC(=O)[C@H](CCCCN)NC(=O)[C@H](C)NC(=O)[C@H](CCCNC(=N)N)NC(=O)[C@H](CCCNC(=N)N)NC(=O)[C@H](CCC(=O)O)NC(=O)[C@H](CC(=O)O)NC(=O)[C@H](CC(C)C)NC(=O)[C@H](Cc1ccc(O)cc1)NC(=O)[C@H](CCCCN)NC(=O)[C@H](CO)NC(=O)[C@H](CC(C)C)NC(=O)[C@H](CC(=O)O)NC(=O)[C@H](CO)NC(=O)[C@@H](NC(=O)[C@H](Cc1ccccc1)NC(=O)[C@@H](NC(=O)CNC(=O)[C@H](CCC(N)=O)NC(=O)C(C)(C)NC(=O)[C@@H](N)Cc1c[nH]cn1)[C@@H](C)O)[C@@H](C)O)C(C)C)C(=O)N[C@@H](CO)C(=O)N[C@@H](CCCCNC(=O)CC[C@H](NC(=O)CC[C@H](NC(=O)COCCOCCNC(=O)COCCOCCNC(=O)CC[C@H](NC(=O)CCCCCCCCCCCCCCCCC(=O)O)C(=O)O)C(=O)O)C(=O)O)C(N)=O
B6: N^α-([Aib2,Leu10,Arg20,Leu27,Ser28]-Glucagonyl)-N{Epsilon}[(4S)-4-carboxy-4-[[(4S)-4-carboxy-4-[[2-[2-[2-[[2-[2-[2-[[(4S)-4-carboxy-4-(17-carboxyheptadecanoylam … (peptide)
peptide: H[Aib]QGTFTSDLSKYLDSRRARDFVQWLLSTK([γGlu-γGlu-AEEA-AEEA-γGlu-C18 diacid])-NH2
modifications: N-terminus assumed
SMILES: CC(C)C[C@H](NC(=O)[C@H](Cc1ccc(O)cc1)NC(=O)[C@H](CCCCN)NC(=O)[C@H](CO)NC(=O)[C@H](CC(C)C)NC(=O)[C@H](CC(=O)O)NC(=O)[C@H](CO)NC(=O)[C@@H](NC(=O)[C@H](Cc1ccccc1)NC(=O)[C@@H](NC(=O)CNC(=O)[C@H](CCC(N)=O)NC(=O)C(C)(C)NC(=O)[C@@H](N)Cc1c[nH]cn1)[C@@H](C)O)[C@@H](C)O)C(=O)N[C@@H](CC(=O)O)C(=O)N[C@@H](CO)C(=O)N[C@@H](CCCNC(=N)N)C(=O)N[C@@H](CCCNC(=N)N)C(=O)N[C@@H](C)C(=O)N[C@@H](CCCNC(=N)N)C(=O)N[C@@H](CC(=O)O)C(=O)N[C@@H](Cc1ccccc1)C(=O)N[C@H](C(=O)N[C@@H](CCC(N)=O)C(=O)N[C@@H](Cc1c[nH]c2ccccc12)C(=O)N[C@@H](CC(C)C)C(=O)N[C@@H](CC(C)C)C(=O)N[C@@H](CO)C(=O)N[C@H](C(=O)N[C@@H](CCCCNC(=O)CC[C@H](NC(=O)CC[C@H](NC(=O)COCCOCCNC(=O)COCCOCCNC(=O)CC[C@H](NC(=O)CCCCCCCCCCCCCCCCC(=O)O)C(=O)O)C(=O)O)C(=O)O)C(N)=O)[C@@H](C)O)C(C)C
B7: N^ε29-[(4S)-4-carboxy-4-[[(4S)-4-carboxy-4-[[2-[2-[2-[[2-[2-[2-[[(4S)-4-carboxy-4-(17-carboxyheptadecanoylamino)butanoyl]amino]ethoxy]ethoxy]acetyl]amino]ethoxy … (peptide)
peptide: H[Aib]QGTFTSDLSKYLDTRRAKDFVQWLLSK([γGlu-γGlu-AEEA-AEEA-γGlu-C18 diacid])-NH2
modifications: N-terminus assumed
SMILES: CC(C)C[C@H](NC(=O)[C@H](CC(C)C)NC(=O)[C@H](Cc1c[nH]c2ccccc12)NC(=O)[C@H](CCC(N)=O)NC(=O)[C@@H](NC(=O)[C@H](Cc1ccccc1)NC(=O)[C@H](CC(=O)O)NC(=O)[C@H](CCCCN)NC(=O)[C@H](C)NC(=O)[C@H](CCCNC(=N)N)NC(=O)[C@H](CCCNC(=N)N)NC(=O)[C@@H](NC(=O)[C@H](CC(=O)O)NC(=O)[C@H](CC(C)C)NC(=O)[C@H](Cc1ccc(O)cc1)NC(=O)[C@H](CCCCN)NC(=O)[C@H](CO)NC(=O)[C@H](CC(C)C)NC(=O)[C@H](CC(=O)O)NC(=O)[C@H](CO)NC(=O)[C@@H](NC(=O)[C@H](Cc1ccccc1)NC(=O)[C@@H](NC(=O)CNC(=O)[C@H](CCC(N)=O)NC(=O)C(C)(C)NC(=O)[C@@H](N)Cc1c[nH]cn1)[C@@H](C)O)[C@@H](C)O)[C@@H](C)O)C(C)C)C(=O)N[C@@H](CO)C(=O)N[C@@H](CCCCNC(=O)CC[C@H](NC(=O)CC[C@H](NC(=O)COCCOCCNC(=O)COCCOCCNC(=O)CC[C@H](NC(=O)CCCCCCCCCCCCCCCCC(=O)O)C(=O)O)C(=O)O)C(=O)O)C(N)=O

Assays:
[1] = biological target: human glucagon receptor (human, UniProt P47871 26-477); assay: cell-based or functional assay
[2] = biological target: human GLP-1 receptor (human, UniProt P43220 24-463); assay: cell-based or functional assay

Chain of human glucagon receptor (P47871 26-477): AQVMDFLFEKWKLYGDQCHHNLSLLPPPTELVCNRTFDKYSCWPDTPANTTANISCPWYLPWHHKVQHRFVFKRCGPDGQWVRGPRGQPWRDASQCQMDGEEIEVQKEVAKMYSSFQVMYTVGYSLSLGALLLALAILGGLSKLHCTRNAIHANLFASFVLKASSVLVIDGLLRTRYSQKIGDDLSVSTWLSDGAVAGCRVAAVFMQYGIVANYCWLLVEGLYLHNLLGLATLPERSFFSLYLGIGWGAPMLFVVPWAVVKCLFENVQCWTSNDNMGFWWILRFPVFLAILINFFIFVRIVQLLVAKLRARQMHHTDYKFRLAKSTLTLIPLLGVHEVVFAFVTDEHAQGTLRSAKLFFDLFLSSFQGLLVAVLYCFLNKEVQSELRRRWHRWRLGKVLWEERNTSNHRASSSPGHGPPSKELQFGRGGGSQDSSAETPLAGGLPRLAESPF

Binder | EC50 GlucR, CRE luciferase reporter gene assay in BHK cells [1] | EC50 GLP-1R, CRE luciferase reporter gene assay in BHK cells [2]
B1 | 0.0011 nM | 
B2 | 0.0029 nM | 
B3 | 0.109 nM | 0.005 nM
B4 | 0.054 nM | 0.008 nM
B5 | 1.43 nM | 0.006 nM
B6 | 1.21 nM | 0.02 nM
B7 | 0.672 nM | 0.015 nM
